Our source for the stoichiometry N values is paper PMC6918676.

This assay deals with full length Trk-A with a C-terminal (GGS)5 linker and eYFP or mTurquoise (human) (UniProt P04629). Briefly: FRET or BRET. A general note: Bioluminescence resonance energy transfer reports proximity on the nanometre scale.

What is called stoichiometry N is a count of units in the complex or per binding partner.

Sequence of full length Trk-A with a C-terminal (GGS)5 linker and eYFP or mTurquoise (P04629 33-796): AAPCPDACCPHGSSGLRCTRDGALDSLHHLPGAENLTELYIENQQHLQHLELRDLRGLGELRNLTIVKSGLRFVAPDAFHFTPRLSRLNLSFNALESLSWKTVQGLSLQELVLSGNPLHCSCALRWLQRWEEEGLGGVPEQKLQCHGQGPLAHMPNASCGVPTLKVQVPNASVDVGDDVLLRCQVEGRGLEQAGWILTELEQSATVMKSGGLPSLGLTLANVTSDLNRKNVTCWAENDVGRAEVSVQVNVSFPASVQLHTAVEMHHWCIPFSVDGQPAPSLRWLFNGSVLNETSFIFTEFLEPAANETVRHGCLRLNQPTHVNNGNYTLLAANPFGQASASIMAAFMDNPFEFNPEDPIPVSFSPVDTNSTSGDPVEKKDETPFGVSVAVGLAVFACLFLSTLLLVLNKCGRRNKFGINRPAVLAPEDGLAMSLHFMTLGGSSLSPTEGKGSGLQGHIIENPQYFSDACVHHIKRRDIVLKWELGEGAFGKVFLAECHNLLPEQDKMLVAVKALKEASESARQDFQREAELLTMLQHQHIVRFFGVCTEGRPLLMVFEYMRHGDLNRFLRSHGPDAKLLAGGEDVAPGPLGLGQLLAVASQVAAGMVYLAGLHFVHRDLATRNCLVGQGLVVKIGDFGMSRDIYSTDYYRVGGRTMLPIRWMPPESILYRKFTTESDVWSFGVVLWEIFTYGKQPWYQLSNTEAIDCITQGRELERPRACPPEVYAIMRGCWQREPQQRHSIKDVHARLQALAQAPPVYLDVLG

“full length Trk-A with a C-terminal (GGS)5 linker and eYFP or mTurquoise (from UniProt P04629 33-796) (receptor)” gave a stoichiometry N of 2.
